In the supplement of paper PMC9170038:

Legend:
MS2 coat protein [1] = test: apparent KD of MS2 coat protein, switch ON state; designed switch direction (-1 OFF switch, 1 ON switch): -1; higher = weaker reporter binding; details: FMN input: 0 or 200 uM; Eterna round: R93 (includes R88 designs)
Procedure, shortened: (§1)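 Normalised binding curves from single clusters were fitted, and the median fit for each design is given as apparent KD. The clusters held designed RNA switches transcribed on-chip from Illumina sequencing clusters. These were titrated with SNAP-549-labelled MS2 coat protein (twofold steps from 0.7 or 1.5 nM to 3 µM, 0.8–1.5 h to 10–20 min per step) in 100 mM Tris-HCl pH 7.5, 80 mM KCl, 4 mM MgCl2, without or with constant ligand.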

MS2 coat protein [2] = test: apparent KD of MS2 coat protein, switch OFF state (with FMN for OFF switches, without FMN for ON switches); designed switch direction (-1 OFF switch, 1 ON switch): -1; higher = weaker reporter binding; details: FMN input: 0 or 200 uM; Eterna round: R93 (includes R88 designs)
Procedure, shortened: as §1

Sequence	apparent KD of MS2 coat protein (MS2 coat protein [1])	apparent KD of MS2 coat protein (MS2 coat protein [2])
AGUGAGUCAGGAUAUUCGUGAAGAAUAAAAGAAAUAACAACGAAGAAGGGACAUGAGGAUCACCCAUGUACACA [May 57]	33.6 nM	25 nM
AGUGAGUGAGGAUAUCACUGAACAACAAAACAAAUAACGAGUGAGAAGGCACAUGAGGAUCACCCAUGUACACA [May 67]	23.4 nM	19.2 nM
AGUUGGCGAGGAUAUACAUGAGGAUCACCCAUGUGAAAAAAAAAAGUGAGAAAGAAAAGUAGAAGGCGCUGACA [Mat - Exclusion 3 - Lego mod - D89]	35.1 nM	152 nM
AGUUGGCGAGGAUAUACAUGAGGAUCACCCAUGUGAGAGAAAAAAAGGAAAAAAAAAAGUAGAAGGCGCUGACA [Mat - Exclusion 3 - Lego mod - D44]	43 nM	69.1 nM
AGUUGGCGAGGAUAUACAUGAGGAUCACCCAUGUGAGAGAAAAAAAGGAGAAAAAAAAGUAGAAGGCGCUGACA [Ruth Fulton Benedict]	42.3 nM	123 nM
AGUUGGCGAGGAUAUACAUGAGGAUCACCCAUGUGAGAGAAAAAAGUGAGAAAGAAAAGUAGAAGGCGCUGACA [Norbert Elias]	49.2 nM	202 nM
AGUUGGCGAGGAUAUACAUGAGGAUCACCCAUGUGAGAGAAAAAAGUGAGAAAGAAAAGUAGAAGGCGCUGACA [salish99-ex3-05]	49.2 nM	202 nM
AGUUGGCGAGGAUAUACAUGAGGAUCACCCAUGUGAGAGUAAGAAGUGAGAAAGAGAAGUAGAAGGCGCUAACA [Ruby 54]	48.4 nM	284 nM
AGUUUGUCAGGAUAUGCGUGAAGAAUAAAACAAAUAACAACGCAGAAGGGACAUGAGGAUCACCCAUGUAAACA [May 54]	51.3 nM	58.1 nM
AUAAAACAUGAGGAUCACCCAUGUGAGGAUAUGCGAAACAAAGAAACAAACAAACAAAGCAGAAGGCACAAUAA [Amethyst 7]	24.2 nM	39.2 nM
AUAAAGUCAGGAUAUGUAAAAAUAACGAAAGUUAUAAAUAAACAGAAGGGACAUGAGGAUCACCCAUGUAAAAU [Meechl MS2 Ex4]	47 nM	41.2 nM
AUAGUACAUGAGGAUCACCCAUGUCAGGAUAUCGGAUAUGACAUGAAAAAAAUGUUAAUGAGAAGGGACUAUAA [EX1 Malc#18 Mod 1 - Jieux - Exclusion 1]	52.9 nM	63.6 nM
AUAGUACAUGAGGAUCACCCAUGUCAGGAUAUUCGAAAUGAAAAAAAAAAAAAAUGAAGGAGAAGGGACUAUAA [EX1 Malc#11]	74.7 nM	72 nM
AUGAGAGCAGGAUAUGCAGGUGAGCCGGAAGAAAGAAGAAGACAUGAGGAUCACCCAUGUAGAAGGGCUAGCCC [Madiesxe]	41.9 nM	38.7 nM
CACGUACAUGAGGAUCACCCAUGUUAGGAUAUGCCGGGUAAGAGAAAACUAAAAAUCAGCAGAAGGGACGAAAC [Bilbo Confounded 16 - Jieux - Exclusion 1]	36.7 nM	32.3 nM
CAGUACUGAGGAUAUACAUGAGGAUCACCCAUGUAUCCAAGCUAGGAAACUAGCAAAAGUAGAAGGCAGUACUG [Ex3: 820]	13.2 nM	65.5 nM
CAGUACUGAGGAUAUACAUGAGGAUCACCCAUGUAUCCUAGCUAGGAAACUAGCAAAUGUAGAAGGCAGUACUG [Ex3: 818]	47.6 nM	503 nM
CAGUGACAUGAGGAUCACCCAUGUUAGGAUAUGCGUGUUAGAAAAAAAAAGUUAAUAAGCAGAAGGAACAGUGG [JR_Exc001_Sub311]	40.8 nM	61.6 nM
CGAAUGUAAGGAUAUAGCCACAUUACGAAUAAGUAGUGUGGCUAGAAGGUACAUGAGGAUCACCCAUGUAUGGG [Exclusion 4.5 (AU closing FMN)]	181 nM	51.7 nM
